US20190211057A1 (NATIONAL YANG MING UNIVERSITY, published 2019)
Each block holds one binder with its values, some of them ahead of it. Ends that are not written are not given here.

Assays:
integrin αvβ3 receptor [1] = target: T1, integrin αvβ3 receptor (UniProt P06756 31-992; P05106 27-718); test: ELISA on integrin αvβ3 receptor; paragraph 109 says yCD can not be bound before and after modification
T1 construct: also called αvβ3 integrin; αvβ3 integrin receptor

[2] = target: T2, integrin αvβ3 receptor on cells (HUVEC, U87MG, MCF-7, ES-2-luc) (human, UniProt P06756 31-1048; P05106 27-788); test: cell ELISA on MCF-7 cells (repeats Table 2)
T2 construct: whole, on cells; HUVEC and U87MG express αvβ3 highly, MCF-7 has low or no expression and ES-2-luc moderate expression; also called integrin αvβ3 on cells; integrin receptor on the cell membrane

[3] = target: T2, integrin αvβ3 receptor on cells (HUVEC, …); test: cell-based or functional assay
[4] = target: T2, integrin αvβ3 receptor on cells (HUVEC, …); test: cell ELISA on U87MG cells, anti-His-HRP
Description: (§1) After reacted with anti-His-HRP antibody and TMB substrate, ELISA reader (OD450 nm) is used to detect the amount of recombinant protein bound to the cells, and the binding curve is drawn. The nonlinear curve of the prism software is used to make a diagram and calculate the dissociation constant (Kd).
(§2) The anti-His6-Tag-HRP antibody and TMB show the color reagent to detect the amount of recombinant protein bound to the cell, then the dissociation constant Kd value of the recombinant protein and the integrin αᵥβ₃ receptor is calculated and a binding curve is drawn.

[5] = target: T2, integrin αvβ3 receptor on cells (HUVEC, …); test: cell ELISA on MCF-7 cells (low αvβ3 expression), anti-His-HRP
Description: as §1, §2

[6] = target: T2, integrin αvβ3 receptor on cells (HUVEC, …); test: cell ELISA on HUVEC cells, anti-His-HRP
Description: as §1, §2

integrin αvβ3 receptor [7] = target: T1, integrin αvβ3 receptor; test: ELISA on integrin αvβ3 receptor, anti-His6-HRP detection, curve fit
Description: The dissociation constant Kd is obtained by prism software with curve fitting method.

[8] = target: T2, integrin αvβ3 receptor on cells (HUVEC, …); test: cell ELISA, U87MG against MCF-7
integrin αvβ3 receptor [9] = target: T1, integrin αvβ3 receptor; test: ELISA on integrin αvβ3 receptor, one site-specific binding fit
Description: The curve and receptor binding ability parameters (see FIG. 19 and Table 14) are fitted by the binding ability of DTPA-modified protein and integrin αᵥβ₃ receptor through the One site-Specific binding formula in the Graph prism program.

[10] = target: T2, integrin αvβ3 receptor on cells (HUVEC, …); test: cell ELISA on U87MG cells (repeats Table 2)
[11] = target: T2, integrin αvβ3 receptor on cells (HUVEC, …); test: cell-based or functional assay; remark: listed apart in the source
[12] = target: T2, integrin αvβ3 receptor on cells (HUVEC, …); test: cell-based or functional assay; remark: listed apart in the source
[13] = target: T2, integrin αvβ3 receptor on cells (HUVEC, …); test: cell ELISA, HUVEC against MCF-7
integrin αvβ3 receptor [14] = target: T1, integrin αvβ3 receptor; test: ELISA on integrin αvβ3 receptor (repeats Table 14)
[15] = target: T2, integrin αvβ3 receptor on cells (HUVEC, …); test: cell ELISA on HUVEC cells (repeats Table 2)
integrin αvβ3 receptor [16] = target: T1, integrin αvβ3 receptor; test: ELISA on integrin αvβ3 receptor, after simulated labelling and challenge with 10-fold molar excess of EDTA
integrin αvβ3 receptor [17] = target: T1, integrin αvβ3 receptor; test: ELISA on integrin αvβ3 receptor, after simulated labelling conditions
[18] = target: T3, integrin αvβ3 receptor on cells (HUVEC, U87MG, MCF-7, ES-2-luc) (human), P06756; test: competitive cell uptake on ES-2-luc cells, cRGDfk at 1000-fold molar excess; labelled competitor ^111In-DTPA-RGD4C-yCD; conditions: remark: other sources report otherwise
T3 chain 1: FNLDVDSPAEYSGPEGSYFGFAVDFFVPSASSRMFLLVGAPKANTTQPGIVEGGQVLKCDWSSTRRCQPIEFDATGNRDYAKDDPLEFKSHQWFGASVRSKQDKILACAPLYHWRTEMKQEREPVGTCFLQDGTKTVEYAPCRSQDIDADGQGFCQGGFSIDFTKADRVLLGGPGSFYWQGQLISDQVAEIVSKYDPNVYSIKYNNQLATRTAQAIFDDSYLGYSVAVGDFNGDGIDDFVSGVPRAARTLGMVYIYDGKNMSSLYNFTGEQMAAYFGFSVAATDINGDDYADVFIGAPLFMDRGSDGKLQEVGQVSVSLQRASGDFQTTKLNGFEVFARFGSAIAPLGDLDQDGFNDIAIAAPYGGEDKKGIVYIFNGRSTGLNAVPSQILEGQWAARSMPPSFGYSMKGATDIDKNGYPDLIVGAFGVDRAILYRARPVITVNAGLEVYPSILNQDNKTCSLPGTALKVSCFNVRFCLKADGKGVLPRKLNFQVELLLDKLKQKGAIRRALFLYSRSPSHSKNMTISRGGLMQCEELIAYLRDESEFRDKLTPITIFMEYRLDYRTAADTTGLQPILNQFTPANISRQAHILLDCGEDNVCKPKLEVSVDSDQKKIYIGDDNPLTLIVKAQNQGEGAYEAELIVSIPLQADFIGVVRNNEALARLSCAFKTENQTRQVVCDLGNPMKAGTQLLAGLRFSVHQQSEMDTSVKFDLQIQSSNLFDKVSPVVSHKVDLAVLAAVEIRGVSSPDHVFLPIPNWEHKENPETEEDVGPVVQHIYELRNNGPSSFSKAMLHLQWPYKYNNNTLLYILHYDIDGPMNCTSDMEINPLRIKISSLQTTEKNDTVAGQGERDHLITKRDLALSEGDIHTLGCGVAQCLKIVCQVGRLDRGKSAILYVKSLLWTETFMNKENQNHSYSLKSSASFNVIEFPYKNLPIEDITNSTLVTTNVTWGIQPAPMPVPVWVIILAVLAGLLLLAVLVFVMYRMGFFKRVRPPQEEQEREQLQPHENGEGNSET
T3 chain 2: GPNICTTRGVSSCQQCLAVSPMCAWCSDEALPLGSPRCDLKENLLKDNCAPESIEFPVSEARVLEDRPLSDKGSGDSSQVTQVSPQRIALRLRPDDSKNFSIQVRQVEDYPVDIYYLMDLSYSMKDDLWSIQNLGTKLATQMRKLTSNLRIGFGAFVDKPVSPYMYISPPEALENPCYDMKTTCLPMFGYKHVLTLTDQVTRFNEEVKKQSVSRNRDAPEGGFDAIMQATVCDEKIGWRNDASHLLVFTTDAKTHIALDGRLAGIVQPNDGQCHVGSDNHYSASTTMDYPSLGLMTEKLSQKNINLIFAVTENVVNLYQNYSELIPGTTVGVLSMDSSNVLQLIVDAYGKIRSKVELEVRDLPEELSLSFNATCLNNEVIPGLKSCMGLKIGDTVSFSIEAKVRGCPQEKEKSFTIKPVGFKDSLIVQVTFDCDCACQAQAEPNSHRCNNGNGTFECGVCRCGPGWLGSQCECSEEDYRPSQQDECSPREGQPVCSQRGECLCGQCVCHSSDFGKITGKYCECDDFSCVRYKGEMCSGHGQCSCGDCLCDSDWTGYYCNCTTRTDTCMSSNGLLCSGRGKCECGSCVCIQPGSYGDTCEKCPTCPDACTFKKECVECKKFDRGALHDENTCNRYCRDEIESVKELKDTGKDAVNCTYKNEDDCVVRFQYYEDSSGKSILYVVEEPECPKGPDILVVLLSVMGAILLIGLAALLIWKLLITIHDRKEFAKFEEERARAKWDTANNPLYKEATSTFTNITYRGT

[19] = target: T3, integrin αvβ3 receptor on cells (HUVEC, …); test: competitive cell uptake on MCF-7 cells (low αvβ3), cRGDfk at 1000-fold molar excess; labelled ^111In-DTPA-RGD4C-yCD; conditions: remark: other sources report otherwise
[20] = target: T3, integrin αvβ3 receptor on cells (HUVEC, …); test: competitive cell uptake on HUVEC cells, cRGDfk at 1000-fold molar excess; labelled ^111In-DTPA-RGD4C-yCD; conditions: remark: other sources report otherwise

binding result (integrin αvβ3 receptor [1]): no binding
B1: DTPA-yCD (enzyme)
chain: MVVTGGMASKWDQKGMDIAYEEAALGYKEGGVPIGGCLINNKDGSVLGRGHNMRFQKGSATLHGEISTLENCGRLEGKVYKDTTLYTTLSPCDMCTGAIIMYGIPRCVVGENVNFKSKGEKYLQTRGHEVVVVDDERCKKIMKQFIDERPQDWFEDIGELEHHHHHH
modifications: DTPA on primary amines, 1.16 DTPA per protein on average

Kd [2]: 0.366 µM | Kd [4]: 0.0537 µM | Kd [5]: 0.366 µM | Kd [6]: 0.0475 µM | Kd (integrin αvβ3 receptor [7]): 0.0395 µM | fold cell binding ability against MCF-7 [8]: ~6.8 fold | Kd (integrin αvβ3 receptor [9]): 0.0207 µM | Kd [10]: 0.0537 µM | fold cell binding ability against MCF-7 [13]: ~7.7 fold | Kd (integrin αvβ3 receptor [14]): 0.0207 µM | Kd [15]: 0.0475 µM
B2: RGD4C-yCD (other)
chain: MACDCRGDCFCVTGGMASKWDQKGMDIAYEEAALGYKEGGVPIGGCLINNKDGSVLGRGHNMRFQKGSATLHGEISTLENCGRLEGKVYKDTTLYTTLSPCDMCTGAIIMYGIPRCVVGENVNFKSKGEKYLQTRGHEVVVVDDERCKKIMKQFIDERPQDWFEDIGELEHHHHHH
notes: Fusion of the RGD4C peptide with yeast cytosine deaminase, expressed from pET28a(+) in E. coli and detected by its His6 tag; also called RGD4C-yCD recombinant protein
protein reaction concentration IC50 of cytotoxic effect, MTT, HUVEC cells, 100 µM 5-FC [3]: 0.209 µM | protein reaction concentration IC50 of cytotoxic effect, MTT, U87MG cells, 100 µM 5-FC [3]: 0.177 µM | IC50 of 5-FC, MTT cytotoxicity, HUVEC cells incubated with 500 nM protein then washed (repeats Table 3) [11]: 23.6 µM | IC50 of 5-FC, MTT cytotoxicity, MCF-7 cells (low αvβ3) incubated with 500 nM protein then washed (repeats Table 3) [11]: 5130 µM | IC50 of 5-FC, MTT cytotoxicity, U87MG cells incubated with 500 nM protein then washed (repeats Table 3) [11]: 37.1 µM | IC50 of 5-FC, MTT cytotoxicity, HUVEC cells incubated with 500 nM protein then washed [12]: 23.6 µM | IC50 of 5-FC, MTT cytotoxicity, MCF-7 cells (low αvβ3) incubated with 500 nM protein then washed [12]: 5130 µM | IC50 of 5-FC, MTT cytotoxicity, U87MG cells incubated with 500 nM protein then washed [12]: 37.1 µM

Kd (integrin αvβ3 receptor [16]): 0.0346 µM | Kd (integrin αvβ3 receptor [17]): 0.0254 µM
B3: In-DTPA-RGD4C-yCD (other)
chain: B2 chain
modifications: DTPA on primary amines, loaded with the stable isotope of indium
notes: also called In-DTPA- RGD4C-yCD 10x EDTA

percent decrease of uptake [18]: 70% | percent decrease of uptake [19]: 45% | percent decrease of uptake [20]: 65%
B4: cRGDfk (peptide)
peptide: RGDFK
modifications: not fully specified (residues 4, 5); also: prefix c and lower-case f, k not explained
